From paper PMC7269643 (Science Advances, 2020)

Biological target: the molecule itself
Assay: AUC

B1: VapC22 toxin from Mycobacterium tuberculosis, expressed alone from a modified pBAD/Myc-His vector (enzyme)
chain: MTTVLLDSHVAYWWSAEPQRLSMAASQAIEHADELAVAAISWFELAWLAEQERIQLAIPVLSWLQQLAEHVRTVGITPSVAATAVALPSSFPGDPADRLIYATAIEHGWRLVTKDRRLRSHRHPRPVTVW
In the case of B1, the “stoichiometry N” value is reported as 2.
